The values below come from publication PMC6358683.

In experiment [1] the target is HA of A/New Caledonia/20/1999 (influenza A virus A/New Caledonia/20/1999) (UniProt Q6WG00).
The target in experiment [2] is HA of A/mallard/Alberta/35/1976 (influenza A virus A/mallard/Alberta/35/1976). The experiment is described as follows: BLI. Background: Biolayer interferometry detects binding as a change in optical thickness at a sensor tip.

One may read the Kd as the equilibrium constant for the complex coming apart. A low value points to tighter binding. By koff is commonly meant a measure of how fast the partners let go of each other. In general, kon refers to a measure of how fast the partners come together. A higher kon goes with faster complex formation.

For C05 WT (antibody), the HAI, antibody concentration at the endpoint titer; virus A/New Caledonia/20/1999 in experiment [1] was 0.2 µg/mL. Moreover, in experiment [2], the equilibrium dissociation constant (Kd) was found to be 511 nM, the koff is 0.0021 s⁻¹ and the kon was determined as 4100 M⁻¹ s⁻¹.
